According to publication PMC10397247:
One block for each binder: values may come before it.

Columns and labels:
Assay in all cases: two-hybrid library CCmax;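 further: natural log of median RNA to DNA barcode read ratio; higher means stronger binding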
Settings in all cases: mean of both orientations
Core_NNNI-es_KKEE = target: T1, Core_NNNI-es_KKEE
T1 chain: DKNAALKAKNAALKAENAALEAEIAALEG

Core_IIII-es_KEKE = target: T2, Core_IIII-es_KEKE
T2 chain: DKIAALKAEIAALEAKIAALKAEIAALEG

Core_INNN-es_KEEK = target: T3, Core_INNN-es_KEEK
T3 chain: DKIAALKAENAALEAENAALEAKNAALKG

interaction score (Core_NNNI-es_KKEE): 2.38
B1: Core_NNNI-es_EEKK (peptide)
chain: DENAALEAENAALEAKNAALKAKIAALKG

interaction score (Core_IIII-es_KEKE): 1.11
B2: Core_IIII-es_EKEK (peptide)
chain: DEIAALEAKIAALKAEIAALEAKIAALKG

interaction score (Core_INNN-es_KEEK): 1.91
B3: Core_INNN-es_EKKE (peptide)
chain: DEIAALEAKNAALKAKNAALKAENAALEG
